From US20230036213A1

Molecular target: HLA-DR (human)
Experiment: cell-based or functional assay

GEFRYYPNIIAKGVG [HPIV3 Matrix Epitope Peptide 84 (…)]
IFN-gamma production, decrease in the presence of HLA-DR blocking antibodies: 32 to 80%
